# Test results: patent publication US20230381228A1 (University of California, published 2023)
# Biological target: T1, dipeptidyl aminopeptidase-like protein 6 (DPP6), human isoform 1 (human, UniProt P42658 117-865, limits assumed)
# T1 construct: also called DPPX; DPP6 L
# Test: affinity, method not stated (Table 1-4)
# T1 sequence (P42658 117-865 limits assumed): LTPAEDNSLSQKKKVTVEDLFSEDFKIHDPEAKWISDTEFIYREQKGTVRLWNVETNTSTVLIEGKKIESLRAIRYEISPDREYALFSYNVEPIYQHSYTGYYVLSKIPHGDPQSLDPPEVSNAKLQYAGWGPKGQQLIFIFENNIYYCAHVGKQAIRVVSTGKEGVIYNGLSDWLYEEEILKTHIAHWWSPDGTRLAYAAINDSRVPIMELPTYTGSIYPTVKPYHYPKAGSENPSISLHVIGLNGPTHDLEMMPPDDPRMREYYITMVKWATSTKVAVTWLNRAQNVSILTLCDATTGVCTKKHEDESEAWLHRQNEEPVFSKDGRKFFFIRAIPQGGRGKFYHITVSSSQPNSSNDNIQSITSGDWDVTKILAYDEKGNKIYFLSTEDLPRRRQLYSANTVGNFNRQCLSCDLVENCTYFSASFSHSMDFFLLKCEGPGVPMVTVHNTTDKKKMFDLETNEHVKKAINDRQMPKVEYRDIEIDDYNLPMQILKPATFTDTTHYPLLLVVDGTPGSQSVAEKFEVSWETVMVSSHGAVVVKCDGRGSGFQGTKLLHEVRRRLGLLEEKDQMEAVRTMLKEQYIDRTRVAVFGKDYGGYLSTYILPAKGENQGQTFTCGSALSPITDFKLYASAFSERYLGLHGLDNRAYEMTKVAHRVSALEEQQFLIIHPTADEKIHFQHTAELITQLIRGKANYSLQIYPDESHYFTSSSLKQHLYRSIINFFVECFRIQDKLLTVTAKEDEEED
row,Binder,Kd [nM]
1,anti-DPP6 nanobody 2hD6 (VHH) VHH: QVQLQESGGGSVQAGGSLRLSCAASSYTYSYSCMAWFRQAPGKERERVASIHTGTGTANYADSAKGRFTISQDIAANTVYLQMNSLKLEDTAMYYCAARPGSAALRCTTDYSKPHDFTYWGQGTQVTVSS,13
2,anti-DPP6 nanobody 2hD1 (VHH) VHH: QVQLQESGGGLVQPGGSLRLSCAASGYPYGYTFSSYCMRWFRQAPGKDREGVARFERNGLTTYYDDSVKGRFTISQDNVKNTVYLQMNSLKPEDTATYYCAAAPKQLRTCGDYNYWGQGTQVTVSS,69

# Continued, values first:
row,Kd [nM],Binder
1,1.2,anti-DPP6 nanobody 4hD29 (VHH) VHH: QVQLQESGGGLVQPGGSLRLSCAASGFTFSSNYMTWVRQAPGKGPEWVSGINPDGSSTYYADSVKGRFTISRDNAKNTLYLQMNSLKSEDTALYKCATGAAPRIPTTLRGQGTQVTVSS
2,27.2,anti-DPP6 nanobody 2hD123-A24V (VHH) VHH: QVQLQESGGGSVQAGGSLRLSCAVSGSSYSRFRMGWFRQVPGKEREGVAAIYRSDGRTYYADSVKGRFTISQDNTKNTVYLQMNSLKPEDTAMYYCAAGAYSSYLMDANFAYWGQGTQVTVSS
